Like-named read-outs stand apart in the source and are kept apart here. Starred links: 1 amine or outer side, 2 acyl side, 3 side chain; linkers in the order of their positions; H or OH if unused. Non-standard residues stand in square brackets, D forms with d. Groups on a side chain read outwards from the residue. No end group written: not given here. *: point of attachment. C20 diacid = O=C(O)CCCCCCCCCCCCCCCCCCC(=O)*; C17 diacid = O=C(O)CCCCCCCCCCCCCCCC(=O)*; γGlu = O=C(O)[C@H](CCC(=O)[*:2])N[*:1]; αMeY = C[C@](N)(Cc1ccc(O)cc1)C(=O)O; αMeK = C[C@](N)(CCCCN)C(=O)O; Iva = CC[C@](C)(N)C(=O)O; AEEA = NCCOCCOCC(=O)O; Aib = CC(C)(N)C(=O)O
T1: human glucose-dependent insulinotropic polypeptide receptor (human, UniProt P48546 22-466)
T1 sequence (looked up): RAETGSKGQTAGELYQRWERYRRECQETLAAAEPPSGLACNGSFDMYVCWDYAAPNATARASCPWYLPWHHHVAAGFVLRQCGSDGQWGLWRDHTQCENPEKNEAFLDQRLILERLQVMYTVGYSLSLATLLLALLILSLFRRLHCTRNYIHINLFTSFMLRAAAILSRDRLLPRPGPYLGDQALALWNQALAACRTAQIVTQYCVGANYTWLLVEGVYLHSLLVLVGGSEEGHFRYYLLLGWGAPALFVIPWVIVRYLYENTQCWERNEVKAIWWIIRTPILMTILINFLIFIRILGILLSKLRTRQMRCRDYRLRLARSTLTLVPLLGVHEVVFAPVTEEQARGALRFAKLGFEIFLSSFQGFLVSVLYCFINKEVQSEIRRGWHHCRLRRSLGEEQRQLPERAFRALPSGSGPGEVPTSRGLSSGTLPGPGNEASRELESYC

B1: Compound No. 0129 (peptide)
peptide: Y[Aib]QGTFTSDYS[αMeK]ILEK([AEEA-AEEA-γGlu-C20 diacid])KAA[Iva]EFVEWLLAGGPSSGAPPPS-NH2
B2: Compound No. 0106 (peptide)
peptide: H[Aib]HGTFTSDYSK[αMeY]LEK([AEEA-AEEA-γGlu-C17 diacid])KAAQEFVEWLLAGGPSSGAPPPS-NH2
modifications: N-terminus assumed
SMILES: CC(C)C[C@H](NC(=O)[C@H](CC(C)C)NC(=O)[C@H](Cc1c[nH]c2ccccc12)NC(=O)[C@H](CCC(=O)O)NC(=O)[C@@H](NC(=O)[C@H](Cc1ccccc1)NC(=O)[C@H](CCC(=O)O)NC(=O)[C@H](CCC(N)=O)NC(=O)[C@H](C)NC(=O)[C@H](C)NC(=O)[C@H](CCCCN)NC(=O)[C@H](CCCCNC(=O)COCCOCCNC(=O)COCCOCCNC(=O)CC[C@H](NC(=O)CCCCCCCCCCCCCCCC(=O)O)C(=O)O)NC(=O)[C@H](CCC(=O)O)NC(=O)[C@H](CC(C)C)NC(=O)[C@](C)(Cc1ccc(O)cc1)NC(=O)[C@H](CCCCN)NC(=O)[C@H](CO)NC(=O)[C@H](Cc1ccc(O)cc1)NC(=O)[C@H](CC(=O)O)NC(=O)[C@H](CO)NC(=O)[C@@H](NC(=O)[C@H](Cc1ccccc1)NC(=O)[C@@H](NC(=O)CNC(=O)[C@H](Cc1c[nH]cn1)NC(=O)C(C)(C)NC(=O)[C@@H](N)Cc1c[nH]cn1)[C@@H](C)O)[C@@H](C)O)C(C)C)C(=O)N[C@@H](C)C(=O)NCC(=O)NCC(=O)N1CCC[C@H]1C(=O)N[C@@H](CO)C(=O)N[C@@H](CO)C(=O)NCC(=O)N[C@@H](C)C(=O)N1CCC[C@H]1C(=O)N1CCC[C@H]1C(=O)N1CCC[C@H]1C(=O)N[C@@H](CO)C(N)=O
B3: Compound No. 0104 (peptide)
peptide: H[Aib]HGTFTSDYS[αMeK]YLEK([AEEA-AEEA-γGlu-C20 diacid])KAAQEFVEWLLAGGPSSGAPPPS-NH2
modifications: N-terminus assumed
SMILES: CC(C)C[C@H](NC(=O)[C@H](CC(C)C)NC(=O)[C@H](Cc1c[nH]c2ccccc12)NC(=O)[C@H](CCC(=O)O)NC(=O)[C@@H](NC(=O)[C@H](Cc1ccccc1)NC(=O)[C@H](CCC(=O)O)NC(=O)[C@H](CCC(N)=O)NC(=O)[C@H](C)NC(=O)[C@H](C)NC(=O)[C@H](CCCCN)NC(=O)[C@H](CCCCNC(=O)COCCOCCNC(=O)COCCOCCNC(=O)CC[C@H](NC(=O)CCCCCCCCCCCCCCCCCCC(=O)O)C(=O)O)NC(=O)[C@H](CCC(=O)O)NC(=O)[C@H](CC(C)C)NC(=O)[C@H](Cc1ccc(O)cc1)NC(=O)[C@](C)(CCCCN)NC(=O)[C@H](CO)NC(=O)[C@H](Cc1ccc(O)cc1)NC(=O)[C@H](CC(=O)O)NC(=O)[C@H](CO)NC(=O)[C@@H](NC(=O)[C@H](Cc1ccccc1)NC(=O)[C@@H](NC(=O)CNC(=O)[C@H](Cc1c[nH]cn1)NC(=O)C(C)(C)NC(=O)[C@@H](N)Cc1c[nH]cn1)[C@@H](C)O)[C@@H](C)O)C(C)C)C(=O)N[C@@H](C)C(=O)NCC(=O)NCC(=O)N1CCC[C@H]1C(=O)N[C@@H](CO)C(=O)N[C@@H](CO)C(=O)NCC(=O)N[C@@H](C)C(=O)N1CCC[C@H]1C(=O)N1CCC[C@H]1C(=O)N1CCC[C@H]1C(=O)N[C@@H](CO)C(N)=O
B4: Compound No. 0127 (peptide)
peptide: Y[Aib]QGTFTSDYS[αMeK]LLEK([AEEA-AEEA-γGlu-C20 diacid])KAA[Iva]EFVEWLLAGGPSSGAPPPS-NH2

Columns and labels:
Experiment in all cases: cell-based or functional assay
[1] = target: T1, human glucose-dependent insulinotropic …
[2] = target: T2, human glucagon-like peptide-1 receptor (human, UniProt P43220 24-463)
human glucagon receptor [3] = target: T3, human glucagon receptor (human, UniProt P47871 26-477)
T3 sequence (P47871 26-477): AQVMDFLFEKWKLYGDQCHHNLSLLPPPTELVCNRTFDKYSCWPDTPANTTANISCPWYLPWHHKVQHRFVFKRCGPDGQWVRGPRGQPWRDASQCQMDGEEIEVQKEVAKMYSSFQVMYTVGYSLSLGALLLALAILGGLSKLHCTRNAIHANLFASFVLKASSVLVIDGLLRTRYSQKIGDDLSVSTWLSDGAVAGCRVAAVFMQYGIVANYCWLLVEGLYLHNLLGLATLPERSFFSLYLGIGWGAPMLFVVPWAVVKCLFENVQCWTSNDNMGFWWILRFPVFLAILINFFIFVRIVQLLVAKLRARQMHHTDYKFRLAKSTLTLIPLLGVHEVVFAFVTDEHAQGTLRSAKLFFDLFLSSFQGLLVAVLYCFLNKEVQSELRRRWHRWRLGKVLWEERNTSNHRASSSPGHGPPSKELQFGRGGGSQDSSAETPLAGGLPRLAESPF

[4] = target: T1, human glucose-dependent insulinotropic …; remark: listed apart in the source
[5] = target: T2, human glucagon-like peptide-1 receptor; remark: listed apart in the source
human glucagon receptor [6] = target: T3, human glucagon receptor; remark: listed apart in the source

Binder | Activity against human GIPR (EC50 nM) [1] [nM] | Activity against human GLP-1R (EC50 nM) [2] [nM] | Activity against human GCGR (EC50 nM) (human glucagon receptor [3]) [nM] | Activity against human GIPR (EC50 nM) [4] [nM] | Activity against human GLP-1R (EC50 nM) [5] [nM] | Activity against human GCGR (EC50 nM) (human glucagon receptor [6]) [nM]
B1 | 0.002 | 0.159 | 0.067 | – | – | –
B2 | – | – | – | 0.027 | 0.03 | 0.095
B3 | – | – | – | 0.016 | 0.01 | 0.037
B4 | 0.0007 | 0.132 | 0.037 | – | – | –

Reference: patent publication EP4745153A1, “GLP-1, GIP AND GCG RECEPTOR […] USE THEREOF” (Jiangsu Hengrui Pharmaceuticals Co., Ltd., priority 2023, dated 2025)
